Here are results for three molecules from patent publication US7939292B2, “Modified heparinase III and methods of sequencing therewith” (Massachusetts Institute of Technology, priority 2000, dated 2011).

This series is described as follows: Heparinase III kinetic assay of r-heparinase III and histidine mutants. The conditions noted are these: for kcat / Km: heparan sulfate; for Km: calculated assuming a molecular weight of 15 kDa. The class given is biochemical. How it is done: The activity of heparinase III was measured using a UV 232 nm assay similar to those reported for heparinase I and heparinase II (Godavarti, R., Cooney, C. L., Langer, R., and Sasisekharan, R. (1996) Biochemistry 35, 6846-52; Shriver, Z., Hu, Y., and Sasisekharan, R. (1998) J. Biol. Chem. 273, 10160-67; and Lohse, D. and Linhardt, R. J. (1992) J. Biol. Chem. 267, 781-87). Briefly, the increase in absorbance at 232 nm as a function of time was monitored under saturating substrate conditions. All assays were performed with heparan sulfate at a concentration of 2 mg/ml in 50 mM sodium phosphate, pH 7.6. The temperature for enzymatic activity measurements was kept constant at 35° C.
In parallel to the mapping studies and to confirm the results of the chemical modification experiments, each of the thirteen histidine residues present in heparinase III was mutated to alanine. The recombinant heparinase III mutant proteins were expressed, purified, and assessed for enzymatic activity towards heparan sulfate (Table 2).

B1: H225A: recombinant heparinase III with histidine 225 mutated to alanine (protein)
chain: MTTKIFKRIIVFAVIALSSGNILAQSSSITRKDFDHINLEYSGLEKVNKAVAAGNYDDAAKALLAYYREKSKAREPDFSNAEKPADIRQPIDKVTREMADKALVHQFQPHKGYGYFDYGKDINWQMWPVKDNEVRWQLHRVKWWQAMALVYHATGDEKYAREWVYQYSDWARKNPLGLSQDNDKFVWRPLEVSDRVQSLPPTFSLFVNSPAFTPAFLMEFLNSYAQQADYLSTHYAEQGNHRLFEAQRNLFAGVSFPEFKDSPRWRQTGISVLNTEIKKQVYADGMQFELSPIYHVAAIDIFLKAYGSAKRVNLEKEFPQSYVQTVENMIMALISISLPDYNTPMFGDSWITDKNFRMAQFASWARVFPANQAIKYFATDGKQGKAPNFLSKALSNAGFYTFRSGWDKNATVMVLKASPPGEFHAQPDNGTFELFIKGRNFTPDAGVFVYSGDEAIMKLRNWYRQTRIHSTLTLDNQNMVITKARQNKWETGNNLDVLTYTNPSYPNLDHQRSVLFINKKYFLVIDRAIGEATGNLGVHWQLKEDSNPVFDKTKNRVYTTYRDGNNLMIQSLNADRTSLNEEEGKVSYVYNKELKRPAFVFEKPKKNAGTQNFVSIVYPYDGQKAPEISIRENKGNDFEKGKLNLTLTINGKQQLVLVP
In the case of B1, the “changes in recombinant protein yield, enzyme activity, or kinetic parameters compared with r-heparinase III” value (“changes in recombinant protein yield” below) is given as “no significant changes”; the kcat worked out at 22 s⁻¹; the Km is 80 µM.

B2: H241A: recombinant heparinase III with histidine 241 mutated to alanine (protein)
chain: MTTKIFKRIIVFAVIALSSGNILAQSSSITRKDFDHINLEYSGLEKVNKAVAAGNYDDAAKALLAYYREKSKAREPDFSNAEKPADIRQPIDKVTREMADKALVHQFQPHKGYGYFDYGKDINWQMWPVKDNEVRWQLHRVKWWQAMALVYHATGDEKYAREWVYQYSDWARKNPLGLSQDNDKFVWRPLEVSDRVQSLPPTFSLFVNSPAFTPAFLMEFLNSYHQQADYLSTHYAEQGNARLFEAQRNLFAGVSFPEFKDSPRWRQTGISVLNTEIKKQVYADGMQFELSPIYHVAAIDIFLKAYGSAKRVNLEKEFPQSYVQTVENMIMALISISLPDYNTPMFGDSWITDKNFRMAQFASWARVFPANQAIKYFATDGKQGKAPNFLSKALSNAGFYTFRSGWDKNATVMVLKASPPGEFHAQPDNGTFELFIKGRNFTPDAGVFVYSGDEAIMKLRNWYRQTRIHSTLTLDNQNMVITKARQNKWETGNNLDVLTYTNPSYPNLDHQRSVLFINKKYFLVIDRAIGEATGNLGVHWQLKEDSNPVFDKTKNRVYTTYRDGNNLMIQSLNADRTSLNEEEGKVSYVYNKELKRPAFVFEKPKKNAGTQNFVSIVYPYDGQKAPEISIRENKGNDFEKGKLNLTLTINGKQQLVLVP
Regarding B2, the “changes in recombinant protein yield” value is “no significant changes”; the kcat is 5 s⁻¹; the Km was 16 µM.

B3: H234A: recombinant heparinase III with histidine 234 mutated to alanine (protein)
chain: MTTKIFKRIIVFAVIALSSGNILAQSSSITRKDFDHINLEYSGLEKVNKAVAAGNYDDAAKALLAYYREKSKAREPDFSNAEKPADIRQPIDKVTREMADKALVHQFQPHKGYGYFDYGKDINWQMWPVKDNEVRWQLHRVKWWQAMALVYHATGDEKYAREWVYQYSDWARKNPLGLSQDNDKFVWRPLEVSDRVQSLPPTFSLFVNSPAFTPAFLMEFLNSYHQQADYLSTAYAEQGNHRLFEAQRNLFAGVSFPEFKDSPRWRQTGISVLNTEIKKQVYADGMQFELSPIYHVAAIDIFLKAYGSAKRVNLEKEFPQSYVQTVENMIMALISISLPDYNTPMFGDSWITDKNFRMAQFASWARVFPANQAIKYFATDGKQGKAPNFLSKALSNAGFYTFRSGWDKNATVMVLKASPPGEFHAQPDNGTFELFIKGRNFTPDAGVFVYSGDEAIMKLRNWYRQTRIHSTLTLDNQNMVITKARQNKWETGNNLDVLTYTNPSYPNLDHQRSVLFINKKYFLVIDRAIGEATGNLGVHWQLKEDSNPVFDKTKNRVYTTYRDGNNLMIQSLNADRTSLNEEEGKVSYVYNKELKRPAFVFEKPKKNAGTQNFVSIVYPYDGQKAPEISIRENKGNDFEKGKLNLTLTINGKQQLVLVP
For the molecule B3, the “changes in recombinant protein yield” value is reported as “no significant changes”; the kcat was 23 s⁻¹; the Km is 75 µM.
